The values that follow come from patent US20200140512A1 (Xencor, published 2020).

In assay [1] the target is T1, human PD-1-His (human, UniProt Q15116 25-167, limits assumed).
T1 construct: not shown: His tag
Put plainly: Octet (Example 7A, told again). (In general: In BLI a coated tip is dipped into the sample, and binding shifts an interference pattern.)

The target in assay [2] is T2, PD-1 (antigen of the Octet affinity measurements of Example 9 and of the affinities quoted afterwards) (UniProt Q15116 25-167, limits assumed).
T2 construct: most likely human PD-1-His
T2 sequence (Q15116 25-167 limits assumed): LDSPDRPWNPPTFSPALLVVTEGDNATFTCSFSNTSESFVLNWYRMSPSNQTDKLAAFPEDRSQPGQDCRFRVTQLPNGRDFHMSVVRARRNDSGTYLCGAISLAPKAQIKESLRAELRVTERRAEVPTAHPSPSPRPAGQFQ
The experiment in a line: Octet affinity screen, bivalent IgG1 format.

In assay [3] the target is T1, human PD-1-His. Put plainly: Octet, antibody captured on anti-human Fc (AHC) biosensors, dipped into multiple concentrations of PD-1-His.
Assay [4] deals with T1, human PD-1-His. The experiment in a line: Octet, antibody on AHC biosensors, multiple concentrations of PD-1-His.

Some results are limits rather than exact numbers.

T1 sequence (Q15116 25-167 limits assumed): as above

B1: XENP28536 (bivalent mAb based on humanized mAb C, mAb C[PD-1]_H1L1) (antibody, human IgG1, V domains shown)
VH: EVQLVESGGGLVQPGGSLRLSCAASGFTFSSFGMHWVRQAPGKGLEWVSYISSGSSIIYYADSVKGRFTISRDNAKNSLYLQMNSLRAEDTAVYYCARGGRLVWSPDYWGQGTLVTVSS
VL: DIVMTQSPDSLAVSLGERATINCKSSQSLLNSGNQKNYLTWYQQKPGQPPKLLIYWASTRESGVPDRFTGSGSGTDFTLTISSLQAEDVAVYYCQNDYSYPFTFGSGTKLEIK
notes: also called WT
On to B1, for which, in assay [1], the binding result is listed as “binds”.

B2: mAb C[PD-1]_H1_L1.1 (bivalent IgG1 format with E233P/L234V/L235A/G236_/S267K ablation variants) (antibody, V domains shown)
VH: EVQLVESGGGLVQPGGSLRLSCAASGFTFSSFGMHWVRQAPGKGLEWVSYISSGSSIIYYADSVKGRFTISRDNAKNSLYLQMNSLRAEDTAVYYCARGGRLVWSPDYWGQGTLVTVSS
VL: DIVMTQSPDSLAVSLGERATINCKSSQSLLHSGNQKNYLTWYQQKPGQPPKLLIYWASTRESGVPDRFTGSGSGTDFTLTISSLQAEDVAVYYCQNDYSYPFTFGSGTKLEIKR
notes: Human IgG1 with ablation variants; copies: 2 + 2
For the molecule B2, the “fold improved affinity over WT” value in assay [2] was 2 fold.

B3: XENP28538 (humanized variant of anti-PD-1 mAb C, bivalent human IgG1) (antibody, V domains shown)
VH: EVQLVESGGGLVKPGGSLRLSCAASGFTFSSFGMHWVRQAPGKGLEWVGYISSGSSIIYYADPVKGRFTISRDNSKNTLYLQMNSLKTEDTAVYYCARGGRLVWSPDYWGQGTLVTVSS
VL: DIVMTQSPDSLAVSLGERATINCKSSQSLLNSGNQKNYLTWYQQKPGQPPKLLIYWASTRESGVPDRFTGSGSGTDFTLTISSLQAEDVAVYYCQNDYSYPFTFGSGTKLEIKR
notes: Human IgG1 with E233P/L234V/L235A/G236del/S267K
Consider B3, for which the binding result in assay [3] was “no binding”.

B4: mab_C[PD-1]_H1_L1.3 (bivalent IgG1 format with E233P/L234V/L235A/G236_/S267K ablation variants) (antibody, V domains shown)
VH: EVQLVESGGGLVQPGGSLRLSCAASGFTFSSFGMHWVRQAPGKGLEWVSYISSGSSIIYYADSVKGRFTISRDNAKNSLYLQMNSLRAEDTAVYYCARGGRLVWSPDYWGQGTLVTVSS
VL: DIVMTQSPDSLAVSLGERATINCKSSQSLLSSGNQKNYLTWYQQKPGQPPKLLIYWASTRESGVPDRFTGSGSGTDFTLTISSLQAEDVAVYYCQNDYSYPFTFGSGTKLEIKR
notes: as for B2
In the case of B4, the “fold improved affinity over WT” value in assay [2] was more than 2 fold.

B5: XENP28539 (humanized variant of anti-PD-1 mAb C, bivalent human IgG1) (antibody, V domains shown)
VH: EVQLVESGGGLVKPGGSLRLSCAASGFTFSSFGMHWVRQAPGKGLEWVGYISSGSSIIYYADPVKGRFTISRDNSKNTLYLQMNSLKTEDTAVYYCARGGRLVWSPDYWGQGTLVTVSS
VL: DIVMTQSPLSLPVTPGEPASISCRSSQSLLNSGNQKNYLTWYLQKPGQPPQLLIYWASTRESGVPDRFTGSGSGTDFTLKISRVEAEDVGVYYCQNDYSYPFTFGSGTKLEIKR
notes: as for B3
B5: in assay [3], the binding result is recorded as “no binding”.

B6: XENP28519 (bivalent mAb based on humanized mAb A) (antibody, human IgG1, kappa, V domains shown)
VH: QVQLQESGPGLVKPSQTLSLTCTVSGHSITSDYAWNWIRQPPGKKLEWIGYISYSGYTTYNPSLKSRVTISRDTSKNQFSLKLSSVTAADTAVYFCARDLDYGPWFAYWGQGTLVTVSS
VL: DIQMTQSPSSLSASVGDRVTITCRASENIHNYLAWYQQKPGKSPKLLVYNVKTLADGVPSRFSGSGSGTDYTLTISSLQPEDFATYYCQHFWSSPWTFGGGTKVEIKR
notes: also called anti-PD-1 mAb XENP28519
Take B6: in assay [4], the binding result is on record as “binds”.
